Source: US7306904

Target: soluble PDGF-alpha receptor (UniProt P16234)
Test: proximity ligation competition assay in solution: 100 nM PDGF-AA added to 6.4 pM PDGF-BB, 2.5 nM soluble PDGF-alpha receptor and 5 pM aptamer probes; the signal comes from PDGF-BB displaced from the receptor, compared with no PDGF-AA

UniProt P16234, sequence (P16234 24-524 limits assumed): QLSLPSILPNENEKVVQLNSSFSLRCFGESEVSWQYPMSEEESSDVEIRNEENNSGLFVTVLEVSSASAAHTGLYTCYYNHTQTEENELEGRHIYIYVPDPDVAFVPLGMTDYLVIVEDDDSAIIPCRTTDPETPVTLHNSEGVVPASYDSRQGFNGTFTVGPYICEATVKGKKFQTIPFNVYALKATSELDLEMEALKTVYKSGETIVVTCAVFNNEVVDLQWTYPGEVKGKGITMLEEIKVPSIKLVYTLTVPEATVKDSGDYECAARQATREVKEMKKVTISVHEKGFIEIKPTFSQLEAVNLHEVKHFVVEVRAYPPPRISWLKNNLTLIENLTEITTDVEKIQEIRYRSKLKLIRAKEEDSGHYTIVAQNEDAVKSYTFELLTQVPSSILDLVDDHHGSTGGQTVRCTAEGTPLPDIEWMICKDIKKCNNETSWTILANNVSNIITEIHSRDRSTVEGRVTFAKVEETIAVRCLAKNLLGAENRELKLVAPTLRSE

fold increase in signal: 3 fold
Substance: PDGF-AA (from UniProt P04085 87-211) (ligand)
